Data published in paper PMC11432006 (2024).

Legend:
GFP-BC2-tag [1] = biological target: T1, GFP-BC2-tag; assay: SPR
T1 chain: PDRKAAVSHWQQ

GFP-BC2-tag [2] = biological target: T1, GFP-BC2-tag; assay: SPR; 5 mM DTT (reduced)

Kd (GFP-BC2-tag [1]): 9.28 nM
Kd (GFP-BC2-tag [2]): 55.2 nM
B1: anti-BC2-tag VHH (BC2-Nb) (VHH)
VHH: QVQLVESGGGLVQPGGSLTLSCTASGFTLDHYDIGWFRQAPGKEREGVSCINNSDDDTYYADSVKGRFTIFMNNAKDTVYLQMNSLKPEDTAIYYCAEARGCKRGRYEYDFWGQGTQVTVSS
